Experimental data taken from patent US20240269283A1 (NINGBO T MAXIMUM BIOPHARMACEUTICALS, published 2024).

Key:
[1] = molecular target: T1, B7H3 on U251 cells (UniProt Q5ZPR3 29-534, limits assumed); experiment: flow cytometry on U251 cells (expressing B7H3), MFI against antibody concentration
T1 construct: whole, on cells; also called U251 cells (expressing B7H3)
T1 sequence (looked up): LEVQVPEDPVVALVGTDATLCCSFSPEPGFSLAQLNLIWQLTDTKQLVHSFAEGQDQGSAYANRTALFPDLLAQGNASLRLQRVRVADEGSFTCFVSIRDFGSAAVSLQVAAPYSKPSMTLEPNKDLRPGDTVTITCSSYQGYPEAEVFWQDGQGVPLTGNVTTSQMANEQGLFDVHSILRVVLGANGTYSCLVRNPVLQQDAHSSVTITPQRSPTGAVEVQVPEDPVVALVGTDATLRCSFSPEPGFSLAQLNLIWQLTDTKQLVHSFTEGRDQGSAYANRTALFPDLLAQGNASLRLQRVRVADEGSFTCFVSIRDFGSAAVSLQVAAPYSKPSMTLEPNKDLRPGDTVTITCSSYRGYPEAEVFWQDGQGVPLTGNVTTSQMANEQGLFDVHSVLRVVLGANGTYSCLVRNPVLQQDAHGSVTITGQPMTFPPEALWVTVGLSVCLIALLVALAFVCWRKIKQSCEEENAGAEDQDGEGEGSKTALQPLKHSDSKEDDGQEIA
Description: Recombinant antibodies with different concentrations were incubated with U251 cells (expressing B7H3), and the binding of the antibodies to the cell surface was assayed by the mean fluorescence intensity (MFI) of the cells. From the results shown in FIG. 2, the 1A5 and 1G7 antibodies and the humanized antibodies thereof can effectively bind to the surface of the U251 cells.

[2] = molecular target: T2, B7H3-Fc recombinant protein (human, UniProt Q5ZPR3 29-461); experiment: SPR, Biacore 8K, CM5 chip
T2 construct: also called human B7H3 protein; not shown: Fc part of the B7H3-Fc recombinant protein
T2 sequence (looked up): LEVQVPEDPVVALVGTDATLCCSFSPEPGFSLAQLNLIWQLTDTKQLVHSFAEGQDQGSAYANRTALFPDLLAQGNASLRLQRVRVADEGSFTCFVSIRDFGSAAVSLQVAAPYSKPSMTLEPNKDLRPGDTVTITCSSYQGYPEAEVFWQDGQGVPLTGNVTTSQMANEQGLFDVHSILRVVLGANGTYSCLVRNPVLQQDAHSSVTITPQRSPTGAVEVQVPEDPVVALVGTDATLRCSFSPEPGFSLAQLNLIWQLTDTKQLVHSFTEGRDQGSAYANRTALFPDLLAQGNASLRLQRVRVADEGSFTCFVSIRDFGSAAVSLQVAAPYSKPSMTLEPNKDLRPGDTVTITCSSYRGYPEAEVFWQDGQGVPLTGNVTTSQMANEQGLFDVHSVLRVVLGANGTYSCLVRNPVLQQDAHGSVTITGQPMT
Description: The mouse anti-human IgG (Fc) antibody was diluted with the immobilization reagent (sodium acetate, pH 5.0): 950 μL of the immobilization reagent was added to 50 μL of the mouse anti-human IgG (Fc) antibody. The dilution was used for immobilization in eight channels. First, the surface of the CM5 chip was activated for 360 s with EDC and NHS at a flow rate of 10 μL/min. Then, the mouse anti-human IgG (Fc) antibody was injected into the channels (channels 1-8, Fc1,2) at a flow rate of 10 μL/min for about 360 s, with the level of immobilization at about 7000 to 14,000 RU. Finally, the chip was blocked with ethanolamine at 10 μL/min for 420 s.
The human B7H3 protein was diluted 2-fold with the running reagent. The diluted human B7H3 protein was injected into the experimental channels and the reference channels in sequence at a flow rate of 30 μL/min, and corresponding periods of association and dissociation were allowed. The association and dissociation steps were all performed in the running reagent. After each concentration analysis, the chip needed to be regenerated with magnesium chloride at a flow rate of 20 μL/min for 30 s to wash away the ligand and undissociated analyte. For the next concentration analysis, the experimental channels needed to recapture the same amount of ligand.
A KD value was calculated for each sample using Biacore 8K analysis software Biacore Insight Evaluation Software. The reference channels (Fc1) were used for background subtraction.

| Binder | binding result [1] | Kd [2] | koff [2] | kon [2] | EC50 (read off the curve) [1] |
| --- | --- | --- | --- | --- | --- |
| B7H3 single-domain antibody 1A5 (VHH, Called a single-domain antibody / recombinant antibody; also called 1A5 antibody; anti-B7H3 VHH antibody) VHH: QAQLVESGGGLVQTGGSLRLSCAASGRIFSNYSVGWFRQAPGKEREFVAAIIWSTGTTNLADPMKGRFTISRDNAKNTVVLQMNSLKPEDTAIYYCAASFKYSGIYGREADFGSWGQGTQVTVSS | binds | 7.39 nM | 0.0045 s⁻¹ | 609000 M⁻¹ s⁻¹ |  |
| B7H3 single-domain antibody 1G7 (VHH, Called a single-domain antibody / recombinant antibody; also called 1G7 antibody; anti-B7H3 VHH antibody) VHH: AVQLVESGGGLVQTGGSLRLSCADSGRIFSNYAMGWFRQAPGKEREFVAAIIGSTGTVNYADSMKGRFTISRDNAKNTVVLQMNSLKPEDTAIYYCAASFRYSGIYGREADFVSWGQGTQVTVSS |  | 5.38 nM | 0.00618 s⁻¹ | 1.15e+06 M⁻¹ s⁻¹ | ~4 µg/mL |
| hu1A5 (VHH, a member of the group m3 (humanized antibodies of 1A5 and 1G7); also called humanized antibody of 1A5) VHH: QVQLVESGGGLVQPGGSLRLSCAASGRIFSNYSVGWFRQAPGKEREFVAAIIWSTGTTYYADSVKGRFTISRDNSKNTLYLQMNSLRAEDTAVYYCAASFKYSGIYGREADFGSWGQGTLVTVSS | binds |  |  |  |  |
| hu1G7 (VHH, a member of the group m3 (humanized antibodies of 1A5 and 1G7); also called humanized antibody of 1G7) VHH: AVQLVESGGGLVQPGGSLRLSCAASGRIFSNYAMGWFRQAPGKEREFVAAIIGSTGTVYYADSVKGRFTISRDNSKNTLYLQMNSLRAEDTAVYYCAASFRYSGIYGREADFVSWGQGTLVTVSS | binds |  |  |  |  |
